From article PMC3792862, “Structure of UreG/UreF/UreH Complex Reveals How Urease Accessory Proteins Facilitate Maturation of Helicobacter pylori Urease” (PLoS Biology, 2013)

T1: UreH (Helicobacter pylori, UniProt Q09067 1-265)
T1 construct: UreH, urease accessory protein of Helicobacter pylori; The UreH chain of m6 to m9; also called UreH (ortholog of UreD)
T1 sequence: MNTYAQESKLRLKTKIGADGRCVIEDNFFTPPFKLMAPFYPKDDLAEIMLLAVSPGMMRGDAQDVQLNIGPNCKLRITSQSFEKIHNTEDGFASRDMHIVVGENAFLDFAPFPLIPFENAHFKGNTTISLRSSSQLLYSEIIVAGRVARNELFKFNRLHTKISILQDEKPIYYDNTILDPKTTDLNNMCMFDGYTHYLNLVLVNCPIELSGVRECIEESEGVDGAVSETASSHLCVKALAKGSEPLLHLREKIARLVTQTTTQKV

T2: HisGST-UreF/UreH complex (Helicobacter pylori, UniProt Q09065 1-254; Q09067 1-265)
T2 construct: UreF, urease accessory protein of Helicobacter pylori; UreH, urease accessory protein of Helicobacter pylori; also called wild-type HisGST-UreF (with UreH)
T2 sequence 1: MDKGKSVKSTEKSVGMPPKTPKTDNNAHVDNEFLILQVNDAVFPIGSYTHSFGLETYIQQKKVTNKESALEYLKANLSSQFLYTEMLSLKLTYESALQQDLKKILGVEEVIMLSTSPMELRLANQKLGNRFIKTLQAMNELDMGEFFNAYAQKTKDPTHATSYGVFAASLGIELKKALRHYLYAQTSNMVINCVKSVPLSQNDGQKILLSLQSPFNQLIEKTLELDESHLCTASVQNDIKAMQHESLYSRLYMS
T2 sequence 2: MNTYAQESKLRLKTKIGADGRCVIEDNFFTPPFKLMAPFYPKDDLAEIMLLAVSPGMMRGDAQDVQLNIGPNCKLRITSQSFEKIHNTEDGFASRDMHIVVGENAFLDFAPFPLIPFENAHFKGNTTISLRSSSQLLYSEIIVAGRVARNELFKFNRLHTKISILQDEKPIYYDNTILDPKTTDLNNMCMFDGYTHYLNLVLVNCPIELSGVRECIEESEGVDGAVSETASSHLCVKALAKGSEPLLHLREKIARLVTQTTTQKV

B1: UreF/UreH complex (complex)
chain 1: MDKGKSVKSTEKSVGMPPKTPKTDNNAHVDNEFLILQVNDAVFPIGSYTHSFGLETYIQQKKVTNKESALEYLKANLSSQFLYTEMLSLKLTYESALQQDLKKILGVEEVIMLSTSPMELRLANQKLGNRFIKTLQAMNELDMGEFFNAYAQKTKDPTHATSYGVFAASLGIELKKALRHYLYAQTSNMVINCVKSVPLSQNDGQKILLSLQSPFNQLIEKTLELDESHLCTASVQNDIKAMQHESLYSRLYMS
chain 2: MNTYAQESKLRLKTKIGADGRCVIEDNFFTPPFKLMAPFYPKDDLAEIMLLAVSPGMMRGDAQDVQLNIGPNCKLRITSQSFEKIHNTEDGFASRDMHIVVGENAFLDFAPFPLIPFENAHFKGNTTISLRSSSQLLYSEIIVAGRVARNELFKFNRLHTKISILQDEKPIYYDNTILDPKTTDLNNMCMFDGYTHYLNLVLVNCPIELSGVRECIEESEGVDGAVSETASSHLCVKALAKGSEPLLHLREKIARLVTQTTTQKV
notes: UreF, urease accessory protein of Helicobacter pylori; UreH, urease accessory protein of Helicobacter pylori (ortholog of UreD); also called (UreF/UreH)2; wild-type UreF/UreH complex; copies: 2 + 2
B2: UreF (natural protein)
chain: MDKGKSVKSTEKSVGMPPKTPKTDNNAHVDNEFLILQVNDAVFPIGSYTHSFGLETYIQQKKVTNKESALEYLKANLSSQFLYTEMLSLKLTYESALQQDLKKILGVEEVIMLSTSPMELRLANQKLGNRFIKTLQAMNELDMGEFFNAYAQKTKDPTHATSYGVFAASLGIELKKALRHYLYAQTSNMVINCVKSVPLSQNDGQKILLSLQSPFNQLIEKTLELDESHLCTASVQNDIKAMQHESLYSRLYMS
notes: UreF, urease accessory protein of Helicobacter pylori; The UreF chain of m6, for the rows of two chains that touch; also called UreF protomer; UreF chain A

Assays:
[1] = biological target: the molecule itself; assay: SEC-MALS; SEC/SLS; 40 µM UreG/UreF/UreH complex pre-incubated with 0.5 mM nickel and 1 mM GTP (2 mM magnesium sulfate); Superdex 200, phosphate-buffered saline; peaks analysed by SDS-PAGE
UreH = biological target: T1, UreH; assay: crystal structure; UreG/UreF/UreH complex with 5 mM GDP, 10 mM magnesium sulfate, 5 mM aluminum fluoride; 1.5 M ammonium sulfate, 100 mM sodium acetate pH 5.0, 16°C; GDP-bound state, 2.35 Å; conditions: both partners purified
[2] = biological target: the molecule itself; assay: as above
UreF = biological target: B2; assay: as above; conditions: both partners purified
UreF/UreH complex = biological target: B1; assay: as above; conditions: both partners purified
HisGST-UreF/UreH complex = biological target: T2, HisGST-UreF/UreH complex; assay: pull-down; purified GST-UreF/UreH and excess UreG on GST SpinTrap, 30 min at 4°C; immobilised complex incubated with 1 mM GTP and 2 mM magnesium sulfate, washed with buffer C, eluted with glutathione; SDS-PAGE of wash and eluate; conditions: both partners purified

Row | Binder | stoichiometry N [1] | binding result (UreH) | binding result [2] | binding result (UreF) | binding result (UreF/UreH complex) | binding result (HisGST-UreF/UreH complex)
1 | B1 | 2 | – | – | – | – | –
2 | B2 | – | binds | binds | – | – | –
3 | UreG (natural protein, UreG, urease accessory protein (SIMIBI class GTPase) of Helicobacter pylori; Monomer in solution unless nickel and GTP (or free zinc) are present; two copies in the crystal of the UreG/UreF/UreH complex; also called apo-UreG; wild-type UreG; source: E. coli, purified (HisTrap, tag cleaved with SENP1C, second HisTrap, Superdex 75; dialysed with 5 mM EDTA)) MVKIGVCGPVGSGKTALIEALTRHMSKDYDMAVITNDIYTKEDAEFMCKNSVMPRERIIGVETGGCPHTAIREDASMNLEAVEEMHGRFPNLELLLIESGGDNLSATFNPELADFTIFVIDVAEGDKIPRKGGPGITRSDLLVINKIDLAPYVGADLKVMERDSKKMRGEKPFIFTNIRAKEGLDDVIAWIKRNALLED | 2 | – | – | binds | binds | binds
